Results reported in patent publication US20260274979A1 (Genmab, published 2026).
Values joined by “and” are separate entries in the source; they are usually repeats but may differ in a detail not shown here. Equal values may be shown once.

What was measured:
[1] = biological target: T1, human PD-1, full-length, expressed on cells (human, UniProt Q15116 25-288); test: cell-based or functional assay
[2] = biological target: T1, human PD-1, full-length, expressed on …; test: cell-based or functional assay; remark: listed apart in the source
[3] = biological target: complement protein C1q (from human serum) (human, UniProt P02745 23-245; P02746 28-253; P02747 29-245); test: flow cytometry: C1q from human serum on activated human CD8+ T cells pre-incubated with antibody, FITC anti-C1q
complement protein C1q (from human serum), sequence (P02745 23-245, chain 1 of 3): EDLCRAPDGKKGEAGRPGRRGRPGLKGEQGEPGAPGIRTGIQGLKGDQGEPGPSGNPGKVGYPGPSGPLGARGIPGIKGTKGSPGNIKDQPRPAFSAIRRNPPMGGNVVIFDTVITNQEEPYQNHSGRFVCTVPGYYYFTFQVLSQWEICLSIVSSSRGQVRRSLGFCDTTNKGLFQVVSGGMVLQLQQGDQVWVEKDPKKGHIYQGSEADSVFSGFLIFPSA
complement protein C1q (from human serum), sequence (P02746 28-253, chain 2 of 3): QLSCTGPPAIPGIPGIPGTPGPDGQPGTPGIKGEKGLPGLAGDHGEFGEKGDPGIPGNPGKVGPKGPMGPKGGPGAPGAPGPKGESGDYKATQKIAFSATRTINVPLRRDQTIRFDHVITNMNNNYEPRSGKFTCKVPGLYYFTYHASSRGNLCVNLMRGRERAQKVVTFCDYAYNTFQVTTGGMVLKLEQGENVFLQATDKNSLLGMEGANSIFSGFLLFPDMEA
complement protein C1q (from human serum), sequence (P02747 29-245, chain 3 of 3): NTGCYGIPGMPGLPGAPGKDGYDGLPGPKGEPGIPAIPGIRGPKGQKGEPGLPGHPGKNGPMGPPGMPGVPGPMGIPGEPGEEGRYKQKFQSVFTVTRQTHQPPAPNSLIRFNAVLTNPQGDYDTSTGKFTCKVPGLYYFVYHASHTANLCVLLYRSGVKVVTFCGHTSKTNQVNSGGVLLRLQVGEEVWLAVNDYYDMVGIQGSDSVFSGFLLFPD

[4] = biological target: T1, human PD-1, full-length, expressed on …; test: competition flow cytometry: antibody titrated against 1 µg/mL biotinylated recombinant human PD-L2 on CHO-S cells transiently transfected with human PD-1; streptavidin-allophycocyanin; % of cells binding PD-L2
[5] = biological target: T1, human PD-1, full-length, expressed on …; test: flow cytometry: 1 µg/mL biotinylated recombinant human PD-L2 on CHO-S cells transiently transfected with human PD-1; streptavidin-allophycocyanin; % of cells binding PD-L2

T1 sequence (Q15116 25-288): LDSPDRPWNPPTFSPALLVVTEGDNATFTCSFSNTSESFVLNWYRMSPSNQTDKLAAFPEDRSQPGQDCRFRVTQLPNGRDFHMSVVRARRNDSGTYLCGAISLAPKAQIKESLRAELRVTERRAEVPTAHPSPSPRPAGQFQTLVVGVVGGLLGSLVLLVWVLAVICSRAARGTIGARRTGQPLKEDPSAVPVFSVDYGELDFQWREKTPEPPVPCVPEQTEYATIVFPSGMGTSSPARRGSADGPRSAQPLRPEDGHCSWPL

Binder | EC50 of PD-1/PD-L1 checkpoint blockade (luminescence, cell-based PD-1/PD-L1 blockade reporter assay) [1] | Average EC50, CD8+ T-cell expansion index in the antigen-specific proliferation assay [2] | binding result [3] | IC50 (read off the curve) [4] [mg/L] | binding result [5]
IgG1-PD1 (antibody, also called IgG1-PDI; copies: 2 + 2) heavy: QVQLVESGGGLVQPGTSLRLSCSVSGFSLYSYNMGWVRQAPGKGLEYIGIISGGTIGHYASWAKGRFTISRDTSKTTLYLQMNSLTTEDTATYFCARAFYDDYDYNVWGPGTLVTVSSASTKGPSVFPLAPSSKSTSGGTAALGCLVKDYFPEPVTVSWNSGALTSGVHTFPAVLQSSGLYSLSSVVTVPSSSLGTQTYICNVNHKPSNTKVDKRVEPKSCDKTHTCPPCPAPEFERGPSVFLFPPKPKDTLMISRTPEVTCVVVDVSHEDPEVKFNWYVDGVEVHNAKTKPREEQYNSTYRVVSVLTVLHQDWLNGKEYKCKVSNKALPAPIEKTISKAKGQPREPQVYTLPPSREEMTKNQVSLTCLVKGFYPSDIAVEWESNGQPENNYKTTPPVLDSDGSFFLYSKLTVDKSRWQQGNVFSCSVMHEALHNHYTQKSLSLSPG light: AIQLTQSPSSLSASVGGTVTITCQSSQSVYGNNQLSWYQQKPGQPPKLLIYQASKLETGVPSRFRGSGSGTQFTLTISSLQSEDFATYYCAGGYSSSSDTTFGGGTEVVVKRTVAAPSVFIFPPSDEQLKSGTASVVCLLNNFYPREAKVQWKVDNALQSGNSQESVTEQDSKDSTYSLSSTLTLSKADYEKHKVYACEVTHQGLSSPVTKSFNRGEC | 0.165 µg/mL and 1.12 nM | 0.0124 µg/mL and 0.0837 nM | no binding (tested: antibody up to 30 µg/mL; 20% human serum) | ~0.9 | 
biotinylated recombinant human PD-L2 (ligand, UniProt Q9BQ51 20-219, looked up, biotinylated, Bought reagent; also called programmed cell death 1 ligand 2) LFTVTVPKELYIIEHGSNVTLECNFDTGSHVNLGAITASLQKVENDTSPHRERATLLEEQLPLGKASFHIPQVQVRDEGQYQCIIIYGVAWDYKYLTLKVKASYRKINTHILKVPETDEVELTCQATGYPLAEVSWPNVSVPANTSHSRTPEGLYQVTSVLRLKPPPGRNFSCVFWNTHVRELTLASIDLQSQMEPRTHP |  |  |  |  | binds
